Read-outs that look alike come from different tables or passages of the source. One block for each substance: values may come before it.
What was measured:
Test in all cases: SEC-MALS
[1] = biological target: His-tagged N. castellii Kar9 N-terminal domain, wild type (NcKar9N-αβγ) (Naumovozyma castellii)
[2] = biological target: His-tagged NcKar9N-αβ• (γ-interface mutant, Tyr363Ala/Arg364Ala) (Naumovozyma castellii)
[3] = biological target: His-tagged NcKar9N-αβ• (γ-interface mutant, Tyr363Ala/Arg364Ala) (Naumovozyma castellii); remark: listed apart in the source
[4] = biological target: His-tagged NcKar9N-α•γ (β-interface mutant, Arg233Ala/Ile237Ala) (Naumovozyma castellii)
[5] = biological target: His-tagged NcKar9N-α•γ (β-interface mutant, Arg233Ala/Ile237Ala) (Naumovozyma castellii); remark: listed apart in the source

stoichiometry N [1]: 2
Substance: His-tagged N. castellii Kar9 N-terminal domain, wild type (NcKar9N-αβγ) (domain or fragment)

stoichiometry N [2]: < 4 | stoichiometry N [3]: < 4
Substance: His-tagged NcKar9N-αβ• (γ-interface mutant, Tyr363Ala/Arg364Ala) (domain or fragment)

stoichiometry N [4]: 2 | stoichiometry N [5]: 2
Substance: His-tagged NcKar9N-α•γ (β-interface mutant, Arg233Ala/Ile237Ala) (domain or fragment)
